Reference: patent US20120164137A1 (MORPHOTEK, published 2012)

Tests used:
[1] = molecular target: T1, Human FRA on IGROV-1 human ovarian adenocarcinoma cells (human, UniProt P15328 25-234); test: cell-based or functional assay
[2] = molecular target: T1, Human FRA on IGROV-1 human ovarian …; test: cell-based or functional assay; remark: listed apart in the source
[3] = molecular target: T2, Recombinant human folate receptor alpha (FRA) (human, UniProt P15328 25-234); test: SPR, FRA on CM5 chip, parallel line analysis; reference standard = 100%
T2 construct: Immobilised on a CM5 chip by amine coupling; also called FR-alpha
Procedure: The surface was regenerated between cycles by flushing with 10 mM glycine pH 2.0.

[4] = molecular target: T1, Human FRA on IGROV-1 human ovarian …; test: cell-based or functional assay; remark: listed apart in the source

T2 sequence (P15328 25-234 limits assumed): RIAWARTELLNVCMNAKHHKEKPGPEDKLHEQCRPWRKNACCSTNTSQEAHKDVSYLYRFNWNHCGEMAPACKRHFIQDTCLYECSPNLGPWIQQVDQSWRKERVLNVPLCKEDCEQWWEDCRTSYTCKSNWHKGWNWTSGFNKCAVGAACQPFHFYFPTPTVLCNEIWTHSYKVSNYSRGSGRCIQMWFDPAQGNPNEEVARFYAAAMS
T1 sequence (P15328 25-234 limits assumed): as above

| Binder | Internalization IC50 [1] [mg/L] | IC50 (Hum-ZAP secondary immunotoxin killing of IGROV-1 cells) [2] [ng·mL] | Measured Potency (%) [3] [%] | Half-Maximal Internalization Constant [1] [min] | INTL % (0 Min) [4] [%] | INTL % (15 min) [4] [%] | INTL % (30 min) [4] [%] | INTL % (60 min) [4] [%] | INTL % (150 min) [4] [%] |
| --- | --- | --- | --- | --- | --- | --- | --- | --- | --- |
| MORAb-003 anti-FRA antibody reference standard (antibody, human IgG1, kappa, V domains shown, N-linked neutral glycans at Asn299 in SEQ ID NO: 5) VH: EVQLVESGGGVVQPGRSLRLSCSASGFTFSGYGLSWVRQAPGKGLEWVAMISSGGSYTYYADSVKGRFAISRDNAKNTLFLQMDSLRPEDTGVYFCARHGDDPAWFAYWGQGTPVTVSS VL: DIQLTQSPSSLSASVGDRVTITCSVSSSISSNNLHWYQQKPGKAPKPWIYGTSNLASGVPSRFSGSGSGTDYTFTISSLQPEDIATYYCQQWSSYPYMYTFGQGTKVEIKR | 0.014 | 14 | – | – | – | – | – | – | – |
| MORAb-003 anti-FRA antibody, lot NB809-70 (CuCl supplement; harvested 13 days after initiation of culture) (antibody, human IgG1, kappa, V domains shown, N-linked neutral glycans at Asn299 in SEQ ID NO: 5) VH: EVQLVESGGGVVQPGRSLRLSCSASGFTFSGYGLSWVRQAPGKGLEWVAMISSGGSYTYYADSVKGRFAISRDNAKNTLFLQMDSLRPEDTGVYFCARHGDDPAWFAYWGQGTPVTVSS VL: DIQLTQSPSSLSASVGDRVTITCSVSSSISSNNLHWYQQKPGKAPKPWIYGTSNLASGVPSRFSGSGSGTDYTFTISSLQPEDIATYYCQQWSSYPYMYTFGQGTKVEIKR | 0.027 | 27 | 48 | 53.3 | 0 | 6 | 16 | 37 | 58 |
| MORAb-003 anti-FRA antibody, lot NB809-69 (10 mM Na butyrate; harvested 13 days after initiation of culture) (antibody, human IgG1, kappa, V domains shown, N-linked neutral glycans at Asn299 in SEQ ID NO: 5) VH: EVQLVESGGGVVQPGRSLRLSCSASGFTFSGYGLSWVRQAPGKGLEWVAMISSGGSYTYYADSVKGRFAISRDNAKNTLFLQMDSLRPEDTGVYFCARHGDDPAWFAYWGQGTPVTVSS VL: DIQLTQSPSSLSASVGDRVTITCSVSSSISSNNLHWYQQKPGKAPKPWIYGTSNLASGVPSRFSGSGSGTDYTFTISSLQPEDIATYYCQQWSSYPYMYTFGQGTKVEIKR | 0.024 | 24 | 49.3 | 51.2 | 0 | 4 | 14 | 36 | 56 |
| MORAb-003 anti-FRA antibody, lot NB809-68 (high CO2; harvested 13 days after initiation of culture) (antibody, human IgG1, kappa, V domains shown, N-linked neutral glycans at Asn299 in SEQ ID NO: 5) VH: EVQLVESGGGVVQPGRSLRLSCSASGFTFSGYGLSWVRQAPGKGLEWVAMISSGGSYTYYADSVKGRFAISRDNAKNTLFLQMDSLRPEDTGVYFCARHGDDPAWFAYWGQGTPVTVSS VL: DIQLTQSPSSLSASVGDRVTITCSVSSSISSNNLHWYQQKPGKAPKPWIYGTSNLASGVPSRFSGSGSGTDYTFTISSLQPEDIATYYCQQWSSYPYMYTFGQGTKVEIKR | 0.028 | 28 | 50.5 | 46.5 | 0 | 4 | 14 | 36 | 52 |
| MORAb-003 anti-FRA antibody, lot NB810-12 (low temperature; harvested 14 days after initiation of culture) (antibody, human IgG1, kappa, V domains shown, N-linked neutral glycans at Asn299 in SEQ ID NO: 5) VH: EVQLVESGGGVVQPGRSLRLSCSASGFTFSGYGLSWVRQAPGKGLEWVAMISSGGSYTYYADSVKGRFAISRDNAKNTLFLQMDSLRPEDTGVYFCARHGDDPAWFAYWGQGTPVTVSS VL: DIQLTQSPSSLSASVGDRVTITCSVSSSISSNNLHWYQQKPGKAPKPWIYGTSNLASGVPSRFSGSGSGTDYTFTISSLQPEDIATYYCQQWSSYPYMYTFGQGTKVEIKR | 0.025 | 25 | 87.3 | 41.2 | 0 | 3 | 21 | 39 | 55 |
| MORAb-003 anti-FRA antibody, lot NB809-67 (low DO; harvested 13 days after initiation of culture) (antibody, human IgG1, kappa, V domains shown, N-linked neutral glycans at Asn299 in SEQ ID NO: 5) VH: EVQLVESGGGVVQPGRSLRLSCSASGFTFSGYGLSWVRQAPGKGLEWVAMISSGGSYTYYADSVKGRFAISRDNAKNTLFLQMDSLRPEDTGVYFCARHGDDPAWFAYWGQGTPVTVSS VL: DIQLTQSPSSLSASVGDRVTITCSVSSSISSNNLHWYQQKPGKAPKPWIYGTSNLASGVPSRFSGSGSGTDYTFTISSLQPEDIATYYCQQWSSYPYMYTFGQGTKVEIKR | 0.029 | 29 | 56.2 | 50.7 | 0 | 3 | 14 | 34 | 53 |
| MORAb-003 anti-FRA antibody, lot NB809-65 (positive control; harvested 13 days after initiation of culture) (antibody, human IgG1, kappa, V domains shown, N-linked neutral glycans at Asn299 in SEQ ID NO: 5, also called Pos. ctl; positive control (round 2)) VH: EVQLVESGGGVVQPGRSLRLSCSASGFTFSGYGLSWVRQAPGKGLEWVAMISSGGSYTYYADSVKGRFAISRDNAKNTLFLQMDSLRPEDTGVYFCARHGDDPAWFAYWGQGTPVTVSS VL: DIQLTQSPSSLSASVGDRVTITCSVSSSISSNNLHWYQQKPGKAPKPWIYGTSNLASGVPSRFSGSGSGTDYTFTISSLQPEDIATYYCQQWSSYPYMYTFGQGTKVEIKR | 0.014 | 14 | 49.7 | 51.7 | 0 | 3 | 13 | 33 | 52 |
| MORAb-003 anti-FRA antibody, lot NB810-11 (galactose supplement; harvested 14 days after initiation of culture) (antibody, human IgG1, kappa, V domains shown, N-linked neutral glycans at Asn299 in SEQ ID NO: 5) VH: EVQLVESGGGVVQPGRSLRLSCSASGFTFSGYGLSWVRQAPGKGLEWVAMISSGGSYTYYADSVKGRFAISRDNAKNTLFLQMDSLRPEDTGVYFCARHGDDPAWFAYWGQGTPVTVSS VL: DIQLTQSPSSLSASVGDRVTITCSVSSSISSNNLHWYQQKPGKAPKPWIYGTSNLASGVPSRFSGSGSGTDYTFTISSLQPEDIATYYCQQWSSYPYMYTFGQGTKVEIKR | 0.019 | 19 | 84.7 | 56.6 | 0 | 3 | 6 | 29 | 50 |
| MORAb-003 anti-FRA antibody, lot NB859-28 (low DO; harvested 14 days after initiation of culture) (antibody, human IgG1, kappa, V domains shown, N-linked neutral glycans at Asn299 in SEQ ID NO: 5, also called low DO (round 3)) VH: EVQLVESGGGVVQPGRSLRLSCSASGFTFSGYGLSWVRQAPGKGLEWVAMISSGGSYTYYADSVKGRFAISRDNAKNTLFLQMDSLRPEDTGVYFCARHGDDPAWFAYWGQGTPVTVSS VL: DIQLTQSPSSLSASVGDRVTITCSVSSSISSNNLHWYQQKPGKAPKPWIYGTSNLASGVPSRFSGSGSGTDYTFTISSLQPEDIATYYCQQWSSYPYMYTFGQGTKVEIKR | – | – | 44.5 | 36.5 | 0 | – | 19 | 44 | 53 |
| MORAb-003 anti-FRA antibody, lot NB810-13 (high osmolarity; harvested 14 days after initiation of culture) (antibody, human IgG1, kappa, V domains shown, N-linked neutral glycans at Asn299 in SEQ ID NO: 5) VH: EVQLVESGGGVVQPGRSLRLSCSASGFTFSGYGLSWVRQAPGKGLEWVAMISSGGSYTYYADSVKGRFAISRDNAKNTLFLQMDSLRPEDTGVYFCARHGDDPAWFAYWGQGTPVTVSS VL: DIQLTQSPSSLSASVGDRVTITCSVSSSISSNNLHWYQQKPGKAPKPWIYGTSNLASGVPSRFSGSGSGTDYTFTISSLQPEDIATYYCQQWSSYPYMYTFGQGTKVEIKR | 0.99 | 990 | 72.6 | 49.6 | 0 | – | 17 | 40 | 62 |
| MORAb-003 anti-FRA antibody, lot NB810-10 (positive control; harvested 14 days after initiation of culture) (antibody, human IgG1, kappa, V domains shown, N-linked neutral glycans at Asn299 in SEQ ID NO: 5, also called Pos. ctl; positive control (round 1)) VH: EVQLVESGGGVVQPGRSLRLSCSASGFTFSGYGLSWVRQAPGKGLEWVAMISSGGSYTYYADSVKGRFAISRDNAKNTLFLQMDSLRPEDTGVYFCARHGDDPAWFAYWGQGTPVTVSS VL: DIQLTQSPSSLSASVGDRVTITCSVSSSISSNNLHWYQQKPGKAPKPWIYGTSNLASGVPSRFSGSGSGTDYTFTISSLQPEDIATYYCQQWSSYPYMYTFGQGTKVEIKR | 1.63 | 1630 | 85.5 | 58.4 | 0 | 4 | 9 | 32 | 56 |
| MORAb-003 anti-FRA antibody, lot NB809-66 (0.5 mM Na butyrate; harvested 13 days after initiation of culture) (antibody, human IgG1, kappa, V domains shown, N-linked neutral glycans at Asn299 in SEQ ID NO: 5) VH: EVQLVESGGGVVQPGRSLRLSCSASGFTFSGYGLSWVRQAPGKGLEWVAMISSGGSYTYYADSVKGRFAISRDNAKNTLFLQMDSLRPEDTGVYFCARHGDDPAWFAYWGQGTPVTVSS VL: DIQLTQSPSSLSASVGDRVTITCSVSSSISSNNLHWYQQKPGKAPKPWIYGTSNLASGVPSRFSGSGSGTDYTFTISSLQPEDIATYYCQQWSSYPYMYTFGQGTKVEIKR | 0.015 | 15 | 61.5 | 53.5 | 0 | 3 | 8 | 31 | 50 |
